Measurements: patent US20180155451A1 (published 2018)

T1: FcγRIIa H (FcγRIIa, type H allotype, His at position 131), extracellular domain with C-terminal His tag (human, UniProt P12318 34-217)
T1 construct: extracellular domain; Soluble receptor expressed in FreeStyle293 cells; analyte in Biacore; also called FcgRIIa H; 2aH; not shown: C-terminal His tag
T1 sequence (looked up): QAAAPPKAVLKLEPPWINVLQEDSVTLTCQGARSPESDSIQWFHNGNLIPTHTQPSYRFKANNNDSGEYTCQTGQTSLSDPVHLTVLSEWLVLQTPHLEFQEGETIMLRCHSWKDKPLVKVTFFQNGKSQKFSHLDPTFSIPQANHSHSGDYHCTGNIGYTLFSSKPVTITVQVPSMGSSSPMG

T2: FcγRIIb, extracellular domain with C-terminal His tag (human, UniProt P31994 43-217)
T2 construct: extracellular domain; Soluble receptor expressed in FreeStyle293 cells; analyte in Biacore; also called FcgRIIb; 2b; not shown: C-terminal His tag
T2 sequence (looked up): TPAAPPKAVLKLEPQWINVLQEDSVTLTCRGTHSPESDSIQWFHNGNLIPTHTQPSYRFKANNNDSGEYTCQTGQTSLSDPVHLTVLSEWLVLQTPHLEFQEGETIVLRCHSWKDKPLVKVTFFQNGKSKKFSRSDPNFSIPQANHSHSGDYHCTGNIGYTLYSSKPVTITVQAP

B1: GpH7-A5/GpH7-B3 variant E269_15Y/GpL16-k0 (antibody, human IgG1, kappa)
heavy 1: not shown
heavy 2: not shown
light: DIVMTQSPLSLPVTPGEPASISCQASESLVHSNRNTYLHWYLQKPGQSPQLLIYKVSNRFSGVPDRFSGSGSGTDFTLKISRVEAEDVGVYYCSQNTHVPPTFGQGTKVEIERTVAAPSVFIFPPSDEQLKSGTASVVCLLNNFYPREAKVQWKVDNALQSGNSQESVTEQDSKDSTYSLSSTLTLSKADYEKHKVYACEVTHQGLSSPVTKSFNRGEC
notes: Heterodimerized IgG1; mutation only in the GpH7-B3 chain; also called He Ab
B2: GpH7-A5/GpH7-B3 variant E269_14T/GpL16-k0 (antibody, human IgG1, kappa)
heavy 1: not shown
heavy 2: not shown
light: B1 light
notes: as for B1
B3: GpH7-A5/GpH7-B3 variant Q295_11K/GpL16-k0 (antibody, human IgG1, kappa)
heavy 1: not shown
heavy 2: not shown
light: B1 light
notes: as for B1
B4: GpH7-A5/GpH7-B3 variant Y300_08L/GpL16-k0 (antibody, human IgG1, kappa)
heavy 1: not shown
heavy 2: not shown
light: B1 light
notes: as for B1
B5: GpH7-A5/GpH7-B3 variant Q295_07I/GpL16-k0 (antibody, human IgG1, kappa)
heavy 1: not shown
heavy 2: not shown
light: B1 light
notes: as for B1
B6: GpH7-A5/GpH7-B3 variant S298_19Q/GpL16-k0 (antibody, human IgG1, kappa)
heavy 1: not shown
heavy 2: not shown
light: B1 light
notes: as for B1
B7: GpH7-A5/GpH7-B3 variant E269_20W/GpL16-k0 (antibody, human IgG1, kappa)
heavy 1: not shown
heavy 2: not shown
light: B1 light
notes: as for B1
B8: GpH7-A5/GpH7-B3 variant E269_19Q/GpL16-k0 (antibody, human IgG1, kappa)
heavy 1: not shown
heavy 2: not shown
light: B1 light
notes: as for B1
B9: GpH7-A5/GpH7-B3 variant Q295_16H/GpL16-k0 (antibody, human IgG1, kappa)
heavy 1: not shown
heavy 2: not shown
light: B1 light
notes: as for B1
B10: GpH7-A5/GpH7-B3 variant Y300_02A/GpL16-k0 (antibody, human IgG1, kappa)
heavy 1: not shown
heavy 2: not shown
light: B1 light
notes: as for B1
B11: GpH7-A5/GpH7-B3 variant Q295_12R/GpL16-k0 (antibody, human IgG1, kappa)
heavy 1: not shown
heavy 2: not shown
light: B1 light
notes: as for B1
B12: GpH7-A5/GpH7-B3 variant S298_20W/GpL16-k0 (antibody, human IgG1, kappa)
heavy 1: not shown
heavy 2: not shown
light: B1 light
notes: as for B1
B13: GpH7-A5/GpH7-B3 variant S298_16H/GpL16-k0 (antibody, human IgG1, kappa)
heavy 1: not shown
heavy 2: not shown
light: B1 light
notes: as for B1
B14: GpH7-A5/GpH7-B3 variant S298_03V/GpL16-k0 (antibody, human IgG1, kappa)
heavy 1: not shown
heavy 2: not shown
light: B1 light
notes: as for B1
B15: GpH7-A5/GpH7-B3 variant S298_07I/GpL16-k0 (antibody, human IgG1, kappa)
heavy 1: not shown
heavy 2: not shown
light: B1 light
notes: as for B1
B16: GpH7-A5/GpH7-B3 variant Y300_07I/GpL16-k0 (antibody, human IgG1, kappa)
heavy 1: not shown
heavy 2: not shown
light: B1 light
notes: as for B1
B17: GpH7-A5/GpH7-B3 variant Y300_01G/GpL16-k0 (antibody, human IgG1, kappa)
heavy 1: not shown
heavy 2: not shown
light: B1 light
notes: as for B1
B18: GpH7-A5/GpH7-B3 variant Y300_06M/GpL16-k0 (antibody, human IgG1, kappa)
heavy 1: not shown
heavy 2: not shown
light: B1 light
notes: as for B1
B19: GpH7-A5/GpH7-B3 variant E269_13S/GpL16-k0 (antibody, human IgG1, kappa)
heavy 1: not shown
heavy 2: not shown
light: B1 light
notes: as for B1

Target: T1, FcγRIIa H (FcγRIIa, type H allotype, …)
Test: ratio of He/Con_2aH to He/Con_2b (FcγRIIa H over FcγRIIb), SPR

Row | He_2aH/2b (IIaH/IIb) | Binder
1 | 1.57 | B1
2 | 1.37 | B2
3 | 1.27 | B3
4 | 1.47 | B4
5 | 1.21 | B5
6 | 1.24 | B6
7 | 1.43 | B7
8 | 1.81 | B8
9 | 1.25 | B9
10 | 1.35 | B10
11 | 1.29 | B11
12 | 1.21 | B12
13 | 1.29 | B13
14 | 1.32 | B14
15 | 1.23 | B15
16 | 1.45 | B16
17 | 1.54 | B17
18 | 1.24 | B18
19 | 1.46 | B19

Target: T2, FcγRIIb, extracellular domain with …
Test: SPR (Biacore), captured antibody, FcγR as analyte

Row | He/Con_2b | Binder
20 | 44.7 relative, GpH7-A5/GpH7-B3/GpL16-k0 = 100 | B1
21 | 50.6 relative, GpH7-A5/GpH7-B3/GpL16-k0 = 100 | B2
22 | 70.4 relative, GpH7-A5/GpH7-B3/GpL16-k0 = 100 | B3
23 | 73.6 relative, GpH7-A5/GpH7-B3/GpL16-k0 = 100 | B4
24 | 84.3 relative, GpH7-A5/GpH7-B3/GpL16-k0 = 100 | B5
25 | 73.3 relative, GpH7-A5/GpH7-B3/GpL16-k0 = 100 | B6
26 | 42.5 relative, GpH7-A5/GpH7-B3/GpL16-k0 = 100 | B7
27 | 44.3 relative, GpH7-A5/GpH7-B3/GpL16-k0 = 100 | B8
28 | 62.7 relative, GpH7-A5/GpH7-B3/GpL16-k0 = 100 | B9
29 | 69.2 relative, GpH7-A5/GpH7-B3/GpL16-k0 = 100 | B10
30 | 65.2 relative, GpH7-A5/GpH7-B3/GpL16-k0 = 100 | B11
31 | 41.1 relative, GpH7-A5/GpH7-B3/GpL16-k0 = 100 | B12
32 | 63.5 relative, GpH7-A5/GpH7-B3/GpL16-k0 = 100 | B13
33 | 64.5 relative, GpH7-A5/GpH7-B3/GpL16-k0 = 100 | B14
34 | 70.6 relative, GpH7-A5/GpH7-B3/GpL16-k0 = 100 | B15
35 | 74.5 relative, GpH7-A5/GpH7-B3/GpL16-k0 = 100 | B16
36 | 48.4 relative, GpH7-A5/GpH7-B3/GpL16-k0 = 100 | B17
37 | 84.3 relative, GpH7-A5/GpH7-B3/GpL16-k0 = 100 | B18
38 | 47.8 relative, GpH7-A5/GpH7-B3/GpL16-k0 = 100 | B19

Target: T1, FcγRIIa H (FcγRIIa, type H allotype, …)
Test: SPR (Biacore), captured antibody, FcγR as analyte

Row | He/Con_2aH | Binder
39 | 70.4 relative, GpH7-A5/GpH7-B3/GpL16-k0 = 100 | B1
40 | 69.6 relative, GpH7-A5/GpH7-B3/GpL16-k0 = 100 | B2
41 | 89.4 relative, GpH7-A5/GpH7-B3/GpL16-k0 = 100 | B3
42 | 108 relative, GpH7-A5/GpH7-B3/GpL16-k0 = 100 | B4
43 | 102 relative, GpH7-A5/GpH7-B3/GpL16-k0 = 100 | B5
44 | 91 relative, GpH7-A5/GpH7-B3/GpL16-k0 = 100 | B6
45 | 60.9 relative, GpH7-A5/GpH7-B3/GpL16-k0 = 100 | B7
46 | 80.2 relative, GpH7-A5/GpH7-B3/GpL16-k0 = 100 | B8
47 | 78.6 relative, GpH7-A5/GpH7-B3/GpL16-k0 = 100 | B9
48 | 93.5 relative, GpH7-A5/GpH7-B3/GpL16-k0 = 100 | B10
49 | 84.1 relative, GpH7-A5/GpH7-B3/GpL16-k0 = 100 | B11
50 | 49.9 relative, GpH7-A5/GpH7-B3/GpL16-k0 = 100 | B12
51 | 82.1 relative, GpH7-A5/GpH7-B3/GpL16-k0 = 100 | B13
52 | 85.1 relative, GpH7-A5/GpH7-B3/GpL16-k0 = 100 | B14
53 | 86.9 relative, GpH7-A5/GpH7-B3/GpL16-k0 = 100 | B15
54 | 108 relative, GpH7-A5/GpH7-B3/GpL16-k0 = 100 | B16
55 | 74.4 relative, GpH7-A5/GpH7-B3/GpL16-k0 = 100 | B17
56 | 105 relative, GpH7-A5/GpH7-B3/GpL16-k0 = 100 | B18
57 | 70 relative, GpH7-A5/GpH7-B3/GpL16-k0 = 100 | B19
